In patent US20230125173A1:

Tests used:
TGFβ1 (R&D systems) = TGFβ1 (R&D systems) (UniProt P01137); assay: cell-based or functional assay
[1] = biological target: IL2Rβ and common γ chain on 32Dβ cells; assay: cell-based or functional assay

UniProt P01137, sequence (P01137 279-390 limits assumed): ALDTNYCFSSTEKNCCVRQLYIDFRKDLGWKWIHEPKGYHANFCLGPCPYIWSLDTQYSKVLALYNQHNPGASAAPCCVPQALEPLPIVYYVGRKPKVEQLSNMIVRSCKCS

Row | IC50, inhibition of TGFβ1 (0.1nM stock) activity in HEK-Blue TGFβ reporter cells, QUANTI-Blue OD 620-655 nM (TGFβ1 (R&D systems)) | EC50, 32Dβ cell proliferation (WST1, absorbance at 450 nM) [1] | Substance
1 | 0.461 nM |  | TGFR-Fc (R&D Systems) (Fc fusion)
2 |  | 0.0106 nM | recombinant IL-15 (from UniProt P40933 49-162) (ligand)
